77 sequences from the supplement of paper PMC7877785 can be followed below.

This data set in a line: self-splicing fitness, log relative to wild type (ln ratio); higher = more splicing; Tetrahymena group I intron in knt gene, E. coli kanamycin selection, DiMSum; sequences stand for … in CUCUCU…GGAGGGAAAAGUUAUCAGGCAUGCACCUGGUAGCUAGUCUUUAAACCAAUAGAUUGCAUCGGUUUAAAAGGCAAGACCGUCAAAUUGCGGGAAAGGGGUCAACAGCCGUUCAGUACCAAGUCUCAGGGGAAACUUUGAGAUGGCCUUGCAAAGGGUAUGGUAAUAAGCUGACGGACAUGGUCCUAACCACGCAGCCAAGUCCUAAGUCAACAGAUCUUCUGUUGAUAUGGAUGCAGUUCACAGACUAAAUGUCGGUCGGGGAAGAUGUAUUCUUCUCAUAAGAUAUAGUCGGACCUCUCCUUAAUGGGAGCUAGCGGAUGAAGUGAUGCAACACUGGAGCCGCUGGGAACUAAUUUGUAUGCGAAAGUAUAUUGAUUAGUUUUGGAGUACUCGUGGUCG
The essentials: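 Colonies from six replicate transformations of E. coli BL21(DE3) were pooled and amplicon-sequenced on an Illumina HiSeq 2500. The library placed an intron with all eight P1ex-region nucleotides randomised inside the knt kanamycin-resistance gene on pET-22b(+), and cells grew overnight at 37°C or 30°C on LB agar with or without 25 μg/mL kanamycin (plus 100 μg/mL carbenicillin, 50 μM IPTG, 0.2% rhamnose). Fitness is the DiMSum error-weighted combination of wild-type-normalised replicate fold changes, kanamycin versus none.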

± gives the uncertainty stated by the source.

For the sequence AUCCAGCAAUAUUACGAUAC, the “self-splicing fitness (ln)” value is -2.91 ± 0.23 (30 °C) and -0.914 ± 0.15 (37 °C).
As to GCACAGCAAUAUUACGGAUG, the “self-splicing fitness (ln)” value was -2.18 ± 0.075 (30 °C) and -1.61 ± 0.096 (37 °C).
Regarding UCGUAGCAAUAUUACGCGUC, the “self-splicing fitness (ln)” value (37 °C) is -2.59 ± 0.33.
For the sequence UCUUAGCAAUAUUACGUUUA, the “self-splicing fitness (ln)” value (30 °C) is -2.75 ± 0.33 and the “self-splicing fitness (ln)” value (37 °C) is -2.57 ± 0.32.
Turning to CACCAGCAAUAUUACGGAAA, the “self-splicing fitness (ln)” value was -1.63 ± 0.1 (30 °C) and -2.03 ± 0.14 (37 °C).
For the sequence ACCGAGCAAUAUUACGGUUC, the “self-splicing fitness (ln)” value (30 °C) is -3.5 ± 0.43.
Turning to GAGCAGCAAUAUUACGGCGC, the “self-splicing fitness (ln)” value runs as follows: (30 °C) -0.751 ± 0.12; (37 °C) 0.209 ± 0.17.
For CACUAGCAAUAUUACGGGUC the same measures were -2.36 ± 0.14 and -2.27 ± 0.2.
For GAACAGCAAUAUUACGCAAU, the “self-splicing fitness (ln)” value runs as follows: (30 °C) -1.53 ± 0.11; (37 °C) -0.769 ± 0.11.
With UCACAGCAAUAUUACGGGAA, the “self-splicing fitness (ln)” value by setting is: (30 °C) -1.98 ± 0.1; (37 °C) -0.945 ± 0.089.
GUUCAGCAAUAUUACGGGAC: the “self-splicing fitness (ln)” value by setting is: (30 °C) -2.39 ± 0.18; (37 °C) -1.16 ± 0.19.
For AGUGAGCAAUAUUACGAUUA the same measures were -2.67 ± 0.3 and -1.47 ± 0.37.
Take CUUUAGCAAUAUUACGGGAG: the “self-splicing fitness (ln)” value is, setting by setting: (30 °C) -2.89 ± 0.18; (37 °C) -2.57 ± 0.21.
For UAGAAGCAAUAUUACGCUAG the same measures were -1.18 ± 0.13 and -0.412 ± 0.16.
Take ACCAAGCAAUAUUACGUAAG: the “self-splicing fitness (ln)” value is -2.18 ± 0.063 (30 °C) and -1.37 ± 0.098 (37 °C).
For AGAUAGCAAUAUUACGCAAC the same measures were -2.05 ± 0.34 and -1.39 ± 0.24.
Turning to UUCAAGCAAUAUUACGCGUC, the “self-splicing fitness (ln)” value is -2.89 ± 0.15 (30 °C) and -0.969 ± 0.16 (37 °C).
Consider CUGUAGCAAUAUUACGAAUU, for which the “self-splicing fitness (ln)” value (37 °C) was -2.7 ± 0.3.
For the sequence AAGGAGCAAUAUUACGCAAA, the “self-splicing fitness (ln)” value reads like this: (30 °C) -3.1 ± 0.3; (37 °C) -2.7 ± 0.32.
Taken in the same sequence, the figures for GCGUAGCAAUAUUACGGCUA were -1.92 ± 0.26 and -0.79 ± 0.2.
In the case of CGAUAGCAAUAUUACGGGCG, the “self-splicing fitness (ln)” value is, setting by setting: (30 °C) -1.67 ± 0.12; (37 °C) -0.602 ± 0.11.
Taken in the same sequence, the figures for GAAUAGCAAUAUUACGUAGG were -3.4 ± 0.15 and -2.68 ± 0.2.
Taken in the same sequence, the figures for CGUAAGCAAUAUUACGGGGG were -2.61 ± 0.14 and -2.69 ± 0.19.
For the sequence GGUCAGCAAUAUUACGACUU, the “self-splicing fitness (ln)” value runs as follows: (30 °C) -0.64 ± 0.081; (37 °C) -1.09 ± 0.087.
For GAGGAGCAAUAUUACGAUUA, the “self-splicing fitness (ln)” value was -1.73 ± 0.15 (30 °C) and -1.8 ± 0.13 (37 °C).
For GUCGAGCAAUAUUACGUGAG the same measures were -0.54 ± 0.076 and -0.266 ± 0.096.
On to GGGUAGCAAUAUUACGGAUU, for which the “self-splicing fitness (ln)” value (30 °C) is -0.431 ± 0.19 and the “self-splicing fitness (ln)” value (37 °C) is -0.333 ± 0.23.
In the case of GCGCAGCAAUAUUACGACCU, the “self-splicing fitness (ln)” value runs as follows: (30 °C) 0.0686 ± 0.071; (37 °C) 0.0313 ± 0.084.
Taken in the same sequence, the figures for GCUAAGCAAUAUUACGCGAU were -2.05 ± 0.45 and -0.565 ± 0.25.
For CUGAAGCAAUAUUACGAAAU the same measures were -3.78 ± 0.27 and -2.38 ± 0.25.
For GGUUAGCAAUAUUACGCCGA the same measures were -1.52 ± 0.25 and -0.734 ± 0.23.
UUGGAGCAAUAUUACGGGCG: the “self-splicing fitness (ln)” value is, setting by setting: (30 °C) -3.99 ± 0.39; (37 °C) -2.13 ± 0.31.
For CGCUAGCAAUAUUACGAGGC the same measures were -3.54 ± 0.2 and -2.95 ± 0.23.
UAGAAGCAAUAUUACGUACG: the “self-splicing fitness (ln)” value (30 °C) was -0.237 ± 0.1 and the “self-splicing fitness (ln)” value (37 °C) was -0.721 ± 0.13.
Turning to GGCCAGCAAUAUUACGAGGU, the “self-splicing fitness (ln)” value (30 °C) is -3.26 ± 0.45 and the “self-splicing fitness (ln)” value (37 °C) was -2.45 ± 0.32.
Taken in the same sequence, the figures for UAGGAGCAAUAUUACGAAUU were -2.72 ± 0.3 and -2.22 ± 0.48.
For AGGUAGCAAUAUUACGAUGG the same measures were -3.633 ± 0.029 and -2.57 ± 0.042.
Taken in the same sequence, the figures for ACUAAGCAAUAUUACGCUAA were -3.83 ± 0.43 and -1.92 ± 0.38.
Consider GAACAGCAAUAUUACGCAGC, for which the “self-splicing fitness (ln)” value by setting is: (30 °C) -2.2 ± 0.29; (37 °C) -1.16 ± 0.23.
For AUGCAGCAAUAUUACGCCCG the same measures were -1.22 ± 0.2 and -0.571 ± 0.29.
Regarding UACAAGCAAUAUUACGCAUC, the “self-splicing fitness (ln)” value was -2.99 ± 0.16 (30 °C) and -2.02 ± 0.18 (37 °C).
Take AGUUAGCAAUAUUACGAUGG: the “self-splicing fitness (ln)” value (30 °C) is -2.45 ± 0.17 and the “self-splicing fitness (ln)” value (37 °C) is -1.51 ± 0.19.
For the sequence GUUUAGCAAUAUUACGCAUG, the “self-splicing fitness (ln)” value by setting is: (30 °C) -2.59 ± 0.18; (37 °C) -0.4 ± 0.18.
Taken in the same sequence, the figures for UCCUAGCAAUAUUACGCAAA were -2.95 ± 0.21 and -1.48 ± 0.12.
For the sequence UGUCAGCAAUAUUACGUAUA, the “self-splicing fitness (ln)” value was -0.245 ± 0.067 (30 °C) and 0.374 ± 0.087 (37 °C).
For CAAGAGCAAUAUUACGUGAU the same measures were -3.6 ± 0.21 and -2.34 ± 0.22.
For UAGUAGCAAUAUUACGGCGC the same measures were -1.6 ± 0.46 and -1.4 ± 0.44.
For GUUGAGCAAUAUUACGCAUC, the “self-splicing fitness (ln)” value (30 °C) is -1.26 ± 0.25.
As for GCGCAGCAAUAUUACGGUUC, the “self-splicing fitness (ln)” value was -0.737 ± 0.077 (30 °C) and 0.0559 ± 0.082 (37 °C).
For ACCGAGCAAUAUUACGCGCC the same measures were -3.19 ± 0.25 and -3.32 ± 0.43.
With CCGUAGCAAUAUUACGUGAU, the “self-splicing fitness (ln)” value (30 °C) was -3.04 ± 0.14 and the “self-splicing fitness (ln)” value (37 °C) was -2.43 ± 0.18.
Take AGUCAGCAAUAUUACGUACA: the “self-splicing fitness (ln)” value (30 °C) is -0.657 ± 0.074 and the “self-splicing fitness (ln)” value (37 °C) stood at 0.284 ± 0.11.
Regarding GUGCAGCAAUAUUACGACAC, the “self-splicing fitness (ln)” value is -1.57 ± 0.25 (30 °C) and -0.906 ± 0.2 (37 °C).
Regarding GAACAGCAAUAUUACGUACA, the “self-splicing fitness (ln)” value was -0.915 ± 0.073 (30 °C) and -0.72 ± 0.082 (37 °C).
For UCCAAGCAAUAUUACGGUCU the same measures were -2.33 ± 0.1 and -0.343 ± 0.097.
As for UUACAGCAAUAUUACGCGAU, the “self-splicing fitness (ln)” value (30 °C) is -2.28 ± 0.18 and the “self-splicing fitness (ln)” value (37 °C) is -1.75 ± 0.16.
With CGUGAGCAAUAUUACGGGCG, the “self-splicing fitness (ln)” value by setting is: (30 °C) -2.93 ± 0.46; (37 °C) -1.63 ± 0.43.
For AGCUAGCAAUAUUACGCUUC the same measures were -3.25 ± 0.3 and -2.65 ± 0.28.
For CUCUAGCAAUAUUACGCGUA the same measures were -4.1 ± 0.27 and -3.32 ± 0.24.
CCAGAGCAAUAUUACGGAGA: the “self-splicing fitness (ln)” value (30 °C) was -2.38 ± 0.26.
For the sequence UCAUAGCAAUAUUACGCCGU, the “self-splicing fitness (ln)” value runs as follows: (30 °C) -3.49 ± 0.34; (37 °C) -1.85 ± 0.39.
For the sequence CAGCAGCAAUAUUACGGGCA, the “self-splicing fitness (ln)” value is, setting by setting: (30 °C) -2.11 ± 0.095; (37 °C) -1.07 ± 0.099.
UGGAAGCAAUAUUACGAGUG: the “self-splicing fitness (ln)” value by setting is: (30 °C) -1.38 ± 0.09; (37 °C) -0.586 ± 0.12.
Taken in the same sequence, the figures for GAAGAGCAAUAUUACGAGAG were -2.3 ± 0.12 and -3.22 ± 0.27.
Taken in the same sequence, the figures for CUGCAGCAAUAUUACGACUC were -3.27 ± 0.26 and -1.98 ± 0.27.
Regarding GCAUAGCAAUAUUACGCCCU, the “self-splicing fitness (ln)” value is -1.78 ± 0.35 (30 °C) and -0.121 ± 0.33 (37 °C).
On to CACUAGCAAUAUUACGAAGC, for which the “self-splicing fitness (ln)” value (37 °C) is -2.83 ± 0.35.
As to AUUAAGCAAUAUUACGCCAG, the “self-splicing fitness (ln)” value reads like this: (30 °C) -2.09 ± 0.15; (37 °C) -1.51 ± 0.22.
UUAUAGCAAUAUUACGAAUC: the “self-splicing fitness (ln)” value (30 °C) is -2.06 ± 0.4 and the “self-splicing fitness (ln)” value (37 °C) was -1.85 ± 0.48.
As to GCGCAGCAAUAUUACGUGAG, the “self-splicing fitness (ln)” value (30 °C) is -0.213 ± 0.054 and the “self-splicing fitness (ln)” value (37 °C) came to 0.445 ± 0.082.
Taken in the same sequence, the figures for CAGCAGCAAUAUUACGUCGG were -0.346 ± 0.063 and -0.0699 ± 0.09.
With CACAAGCAAUAUUACGUGGU, the “self-splicing fitness (ln)” value (30 °C) is -4.1 ± 0.17 and the “self-splicing fitness (ln)” value (37 °C) is -2.66 ± 0.19.
For GACAAGCAAUAUUACGGGAG the same measures were -3.18 ± 0.11 and -1.52 ± 0.1.
Taken in the same sequence, the figures for GGAUAGCAAUAUUACGAGUG were -3.38 ± 0.22 and -1.41 ± 0.14.
Taken in the same sequence, the figures for GUAUAGCAAUAUUACGGCCU were -1.29 ± 0.12 and -0.582 ± 0.16.
Consider UCUAAGCAAUAUUACGGUUC, for which the “self-splicing fitness (ln)” value (30 °C) was -3.4 ± 0.19 and the “self-splicing fitness (ln)” value (37 °C) is -2.39 ± 0.2.
For AACUAGCAAUAUUACGCGUC the same measures were -1.95 ± 0.12 and -1.65 ± 0.14.
